From the supplement of paper PMC9170038

Test system: MS2 coat protein
Assay: apparent KD of MS2 coat protein, switch OFF state (with FMN for OFF switches, without FMN for ON switches); designed switch direction (-1 OFF switch, 1 ON switch): -1; higher = weaker reporter binding
Conditions: FMN input: 0 or 200 uM; Eterna round: R93 (includes R88 designs)
Procedure, shortened: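 Illumina sequencing clusters served as templates for on-chip transcription of the designed RNA switches. SNAP-549-labelled MS2 coat protein was then titrated in twofold steps from 0.7 or 1.5 nM to 3 µM, allowing 0.8–1.5 h per step at first and 10–20 min per step later. The buffer held 100 mM Tris-HCl pH 7.5, 80 mM KCl and 4 mM MgCl2, without or with constant ligand. Apparent KD is the median per design of normalised cluster binding-curve fits.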

Row | Sequence | apparent KD of MS2 coat protein
1 | AAGAACCGAGGAUAUACUAAAGAAAUGAAAAGAAAUAAAGAACAUGAGGAUCACCCAUGUAGAAGGCGGAAGAA [Nebefawre] | 23.4 nM
2 | AACAUGUCAGGAUAUGCGAAGGCGUCUGACAGACGAGGCUAGCAGAAGGGACAUGAGGAUCACCCAUGUAAAAA [Mod of Power Strip by EINando888 - changed 3 and 30 to C] | 48.8 nM
3 | AAAAAGGGAGGAUAUGCAAAGGGAAAGGGAAAGGGAAAGGGACAUGAGGAUCACCCAUGUAGAAGGCUCAAAAA [scarecrow2] | 34 nM
4 | AAAUUGUCAGGAUAUCUUAGAACUCUAAAAUAGAGGAGCUAAGAGAAGGGACAUGAGGAUCACCCAUGUAAAAC [May 89] | 71 nM
5 | AAAAAGGCAGGAUAUACAAAAAAAAAAAAAAAAAAGGAGGGACAUGAGGAUCACCCAUGUAGAAGGGCCAAAAA [Kai Theodor Erikson] | 121 nM
6 | ACCUGACAUGAGGAUCACCCAUGUCAGGAUAUGACUUCGAAAAAAAAAAAAAACGAUGUCAGAAGGGACAUGGG [Design 70: Sub-opt P] | 15.9 nM
7 | AACAGUACAGGAUAUACAUGAGGAUCACCCAUGUGAAAAUUAAGUGGCGUACCACAAGGUAGAAGGGUACUGGA [Moding Maslow Revisited (73) 27] | 129 nM
8 | UAAAGACAUGAGGAUCACCCAUGUGAGGAUAUCGGAGGUGACGGAGCAUCGAGUUCGGCGAGAAGGCGCAGGAA [JR_Exc001_Sub409] | 53.4 nM
9 | AACUAGUCAGGAUAUACGAACAUGUCAAAAAACAUAAAGGGACAUGAGGAUCACCCAUGUAGAAGGGACUAACA [74%, Web mod - With 5 less G's] | 500 nM
10 | AAGAAGUCAGGAUAUCGAAGACAGACGAAAAGUCUGUCAAACGAGAAGGGACAUGAGGAUCACCCAUGUAAGAA [What have we learned so far? 64% 1] | 60.4 nM
11 | AACAGUACAGGAUAUACAUGAGGAUCACCCAUGUAAAAAUAAUAAAAGGGAAAAACUCGUAGAAGGGUACUGGA [Moding Maslow revisited (73) 16] | 104 nM
12 | AACAGACAUGAGGAUCACCCAUGUGAGGAUAUGGCAAUCGAUAGAACUAGAAUGACAACCAGAAGGCACAGCAA [JR_Exc001_Sub004] | 86.3 nM
13 | AUCUCGUCAGGAUAUGACUACAUAAAAAAAAAAAAAUGUAGUCAGAAGGGACAUGAGGAUCACCCAUGUACCAA [HSL_Exclusion 4 64% 3] | 22.8 nM
14 | GAAAAGUGAGGAUAUGCGAAGGCGUCUGAUAGACGAGGCUAGCAGAAGGCACAUGAGGAUCACCCAUGUGGGAA [Mat - Exclusion 4 - Eli mod - D91] | 133 nM
15 | AAAAGCUUAGGAUAUACACAAAAUAAAGGAGUGAUAUCAGAACAUGAGGAUCACCCAUGUAGAAGGAAGAAAUA [Ceerle] | 58 nM
16 | UUCAAGUGAGGAUAUACGAAUAGUAAGUAAGUAUAACAGACGUAGAAGGCACAUGAGGAUCACCCAUGUAAAUA [JR_Exc004_Sub304] | 22.5 nM
17 | AGUGAGUCAGGAUAUGACUGAAGAAUAAAAGAAAUAACAAGUCAGAAGGGACAUGAGGAUCACCCAUGUACACA [May 59] | 20.7 nM
18 | AGCUAGUCAGGAUAUACGAACAAGUCAAAAGACGAGAACGGACAUGAGGAUCACCCAUGUAGAAGGGACUAGCA [Diamond 7] | 13.6 nM
19 | AUCAUGUAAGGAUAUACAAGAAAAGAAAAGAAAGAAAAGAAGUAGAAGGUACAUGAGGAUCACCCAUGUAAGAA [EteRNA is fun!] | 31.5 nM
20 | AACUGACAUGAGGAUCACCCAUGUCAGGAUAUGACUUGACGAAAAAAAACAUGUCAUGUCAGAAGGGACAUGGA [Design 89: Sub-opt Z] | 27.6 nM
21 | AAUAAACAUGAGGAUCACCCAUGUGAGGAUAUGGUAUAAUAAGGACAGUAAUGAUAAACCAGAAGGCACAAAUA [JR_Exc001_Sub1102] | 34.7 nM
22 | AAGAAGUGAGGAUAUACAUGAGGAUCACCCAUGUAAAAGAAAGAAGGGAAAGAGAAAAGUAGAAGGCACAAGAA [Usermaatre-setepenamun Osorkon III] | 31.3 nM

Row | Sequence | apparent KD of MS2 coat protein
23 | AACAGUACAGGAUAUACAUGAGGAUCACCCAUGUGAAAAUUAAGUGGAAAACCACAAAGUAGAAGGGUACUGAA [Mat - Exclusion 3 - Eli mod - D58] | 61.7 nM
24 | AAGAAGUGAGGAUAUCGAAGACAGACGAAAAGUCUGUCAAACGAGAAGGCACAUGAGGAUCACCCAUGUGGAAG [Mat - Exaclusion 4 - Eli mod - D79] | 36.8 nM
25 | AAAGAUACAGGAUAUACAUGAGGAUCACCCAUGUGAGACCAAAAAUGGGAAAAAGAAAGUAGAAGGGUAUAAAA [Ex 3 May 36] | 91.7 nM
26 | GAAAUACAUGAGGAUCACCCAUGUGAGGAUAUGCUAUGGAAAUAAAAAAUAAAACAUAGCAGAAGGUACAAAAG [Mat - Exclusion 1 - Eli mod - D43] | 54.6 nM
27 | AAAAACUGAGGAUAUACGAAAAAAAAAAAAAAAAAAAAAAAACAUGAGGAUCACCCAUGUAGAAGGCAGAAAAA [exclusion 02 - A] | 57.5 nM
28 | GGAGGCGAAGGAUAUACAUGAGGAUCACCCAUGUGAGAGAAAAAAGUGAGAAAGAAAAGUAGAAGGUCGUUUCG [salish99-ex3-128] | 81 nM
29 | AACAUGUGAGGAUAUUUAAGAAAAGAAAAGAAAGAAAAGAAAAAGAAGGCACAUGAGGAUCACCCAUGUAAGAA [EteRNA is fun!] | 26 nM
30 | AAGAACGCAGGAUAUACAUGAGGAUCACCCAUGUAAAAGAAAGAGGGAAAAGAGAAAAGUAGAAGGGCGAAGAA [Setepenre-meryamun Ptolemy I Soter] | 57.8 nM
31 | GCUUGGCAAGGAUAUACAUGAGGAUCACCCAUGUGAGAGAAAAAAGUGAGAAAGAAAAGUAGAAGGUGUUGAGG [salish99-ex3-76] | 48.9 nM
32 | AAAUAGCAAGGAUAUACAUGAGGAUCACCCAUGUAAGGAUGGUAAGUAUUAGAAGAAAGUAGAAGGUGCAAAUA [Ex 3 Tesla 5] | 55.3 nM
33 | AAUAAACAUGAGGAUCACCCAUGUCAGGAUAUGCAUCUAACCUAAUAACAUAAAUACAGCAGAAGGGACUAAUA [JR_Exc001_Sub602] | 25 nM
34 | GAAAGGGCAGGAUAUGCAGAGAGAGAGAGAGAGAGAGAGAAACAUGAGGAUCACCCAUGUAGAAGGGCCGAAAG [salish99-ex2-07] | 29.2 nM
35 | AAGAACCAAGGAUAUACAUGAGGAUCACCCAUGUAAAAGAAAGAAAAGGGAAAGAAAAGUAGAAGGUGGAAGAA [Userkheperure Seti II] | 27.3 nM
36 | AAAAAGUAAGGAUAUACAAGAGAAAACACAAAAAAAAAAAAACAUGAGGAUCACCCAUGUAGAAGGUACAAAAA [Diamond 82] | 24.6 nM
37 | GGAGGCGUAGGAUAUACAUGAGGAUCACCCAUGUGAGAGAAAAAAGUGAGAAAGAAAAGUAGAAGGACGUUUCG [salish99-ex3-127] | 92.1 nM
38 | UCCACACAUGAGGAUCACCCAUGUGAGGAUAUCUAGAAAACCUCAUGUAAAAAAAUCUAGAGAAGGCACAUGAA [Design 92: Pseudoknot B] | 25 nM
39 | AGCAAGUCAGGAUAUACGAAUAAGACAAAAGACGUGAAGGGACAUGAGGAUCACCCAUGUAGAAGGGACAAGCA [LROPPY Exclusion 2 - v01_mod Fisker] | 60.5 nM
40 | GAGGUAUGAGGAUAUACAUAGAUACAGACACAUGUUCAAGUACAUGAGGAUCACCCAUGUAGAAGGCAUAUAUC [Mat - Same state - Mayanna Mod - D105] | 37.2 nM
41 | UCCAGACAUGAGGAUCACCCAUGUCAGGAUAUCUAGAAAACCUCAUGUAAAAAAAACUAGAGAAGGGAUAUGGA [Design 95: Pseudoknot E] | 14.8 nM
42 | AAAAAGCGAGGAUAUACAUGAGGAUCACCCAUGUCAAAAGAAUAUAAAGAAAUAGGAAGUAGAAGGCGCAAAAA [Ex 3 #3] | 56.4 nM
43 | AAGAAGUAAGGAUAUGCUGCUCGUCACAAAAGUGAUGAGUAGCAGAAGGUACAUGAGGAUCACCCAUGUAAAUA [Opal 32] | 17.2 nM
44 | CUCUUGUAAGGAUAUCACCACACAAAAAAAAAAAAGUGUGGUGAGAAGGUACAUGAGGAUCACCCAUGUACUAA [Banishment 12 - Jieux - Exclusion 4] | 25.2 nM
